Series [1] deals with the molecule itself. As to the kind of experiment: SEC; Superose 6 10/300, buffer D (20 mM Tris-HCl, 150 mM sodium chloride, pH 7.5); data not shown. For orientation: In gel filtration, larger molecules generally elute earlier.
The target of series [2] is T1, native authentic human α2-macroglobulin (human, UniProt P01023 24-1474, thioester bond intact (native form)).
T1 construct: human α2-macroglobulin, UniProt P01023, 1,474-residue precursor; as secreted it lacks the signal peptide (recombinant constructs begin at S24); Tetramer (680.6 kDa by SEC-MALLS); glycosylated; also called hα2M; native hα2M; source: purified from human blood plasma of individual donors (PEG 4,000 precipitation, zinc-chelating resin, IEC, SEC)
T1 sequence (looked up): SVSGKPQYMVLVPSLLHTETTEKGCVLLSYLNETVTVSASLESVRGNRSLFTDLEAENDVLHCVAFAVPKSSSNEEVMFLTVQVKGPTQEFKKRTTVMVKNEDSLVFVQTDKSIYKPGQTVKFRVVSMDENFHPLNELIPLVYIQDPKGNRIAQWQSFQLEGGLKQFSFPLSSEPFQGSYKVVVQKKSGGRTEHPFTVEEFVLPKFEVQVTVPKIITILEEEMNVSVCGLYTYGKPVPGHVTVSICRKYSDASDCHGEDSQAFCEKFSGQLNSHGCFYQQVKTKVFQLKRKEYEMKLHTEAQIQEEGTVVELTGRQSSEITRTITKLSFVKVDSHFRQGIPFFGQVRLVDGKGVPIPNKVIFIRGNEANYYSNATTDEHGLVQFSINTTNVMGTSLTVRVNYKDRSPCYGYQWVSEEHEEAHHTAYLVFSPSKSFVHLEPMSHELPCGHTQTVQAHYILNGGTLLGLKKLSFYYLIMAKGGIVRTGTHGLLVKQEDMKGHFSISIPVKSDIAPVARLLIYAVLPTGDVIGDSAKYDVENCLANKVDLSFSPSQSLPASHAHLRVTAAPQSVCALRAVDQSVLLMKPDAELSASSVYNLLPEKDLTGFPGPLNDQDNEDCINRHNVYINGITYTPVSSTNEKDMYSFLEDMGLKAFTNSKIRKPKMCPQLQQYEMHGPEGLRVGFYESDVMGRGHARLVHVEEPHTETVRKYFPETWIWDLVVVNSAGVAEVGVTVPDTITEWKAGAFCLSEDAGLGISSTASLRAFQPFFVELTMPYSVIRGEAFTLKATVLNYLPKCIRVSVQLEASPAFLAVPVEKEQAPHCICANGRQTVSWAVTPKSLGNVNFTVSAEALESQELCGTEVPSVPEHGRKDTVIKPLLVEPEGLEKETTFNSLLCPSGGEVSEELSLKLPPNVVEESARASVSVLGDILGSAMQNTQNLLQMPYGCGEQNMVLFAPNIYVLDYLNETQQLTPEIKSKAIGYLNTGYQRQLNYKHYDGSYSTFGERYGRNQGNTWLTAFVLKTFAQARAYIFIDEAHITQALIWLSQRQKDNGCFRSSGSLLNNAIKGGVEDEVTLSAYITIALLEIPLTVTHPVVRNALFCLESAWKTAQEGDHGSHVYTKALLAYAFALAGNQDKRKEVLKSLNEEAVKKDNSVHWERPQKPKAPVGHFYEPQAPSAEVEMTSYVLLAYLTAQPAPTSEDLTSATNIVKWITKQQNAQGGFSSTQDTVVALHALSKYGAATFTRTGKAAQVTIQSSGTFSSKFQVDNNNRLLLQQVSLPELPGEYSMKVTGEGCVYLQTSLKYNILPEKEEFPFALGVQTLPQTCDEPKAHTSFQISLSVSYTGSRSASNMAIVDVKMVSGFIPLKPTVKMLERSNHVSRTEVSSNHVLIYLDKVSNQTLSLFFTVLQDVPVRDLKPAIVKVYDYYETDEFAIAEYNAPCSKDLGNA
Kind of series: SPR; as a1, affinity analysis: steady-state responses (Req) against analyte concentration, 1:1 model. The following applies: both partners purified. (In SPR one partner is held on a chip, and binding of the other changes the refractive index at the surface.)

In series [3] the target is T2, methylamine-induced authentic human α2-macroglobulin (human, UniProt P01023 24-1474, thioester bond opened by methylamine, producing a free cysteine).
T2 construct: human α2-macroglobulin, UniProt P01023; plasma protein as m1, induced form; Tetramer (684.1 kDa by SEC-MALLS); also called induced hα2M; induced authentic hα2M
T2 sequence (looked up): T1 sequence (looked up)
The description is as above. The following applies: both partners purified.

Series [4] addresses T1, native authentic human α2-macroglobulin. Kind of series: SPR; Strep-tagged GRAB (9.7 nM) captured on Streptactin XT on a CM5 chip; analytes injected in multicycle runs (4–600 nM authentic hα2M, 75–1,200 nM N-hα2M and C-hα2M); HBNS (10 mM HEPES, 150 mM sodium chloride, pH 7.4), 37 °C; kinetic fit, 1:1 Langmuir model. The following applies: both partners purified.
Series [5] shares this target. Kind of series: SEC-MALS; SEC-MALLS, Superose 6 10/300, buffer J (20 mM sodium phosphate, 150 mM sodium chloride, pH 7.4), 25 °C; GRAB to authentic hα2M at a molar ratio of 4:1; triplicate. The following applies: both partners purified.
Series [6] concerns the target T2, methylamine-induced authentic human …. The series is described as above. The following applies: both partners purified.
The target in series [7] is T1, native authentic human α2-macroglobulin. As to the kind of experiment: native gel or EMSA; Sulfo-NHS-AMCA-labelled GRAB mixed with hα2M variants at a 4:1 molar ratio, buffer J, two hours at 37 °C, 10% native PAGE, gel fluorescence then Coomassie. The settings on record: both partners purified.
Series [8] concerns the target T2, methylamine-induced authentic human …. Described as above. The following applies: both partners purified.

B1: recombinant full-length human α2-macroglobulin from S2 cells (natural protein)
chain: SVSGKPQYMVLVPSLLHTETTEKGCVLLSYLNETVTVSASLESVRGNRSLFTDLEAENDVLHCVAFAVPKSSSNEEVMFLTVQVKGPTQEFKKRTTVMVKNEDSLVFVQTDKSIYKPGQTVKFRVVSMDENFHPLNELIPLVYIQDPKGNRIAQWQSFQLEGGLKQFSFPLSSEPFQGSYKVVVQKKSGGRTEHPFTVEEFVLPKFEVQVTVPKIITILEEEMNVSVCGLYTYGKPVPGHVTVSICRKYSDASDCHGEDSQAFCEKFSGQLNSHGCFYQQVKTKVFQLKRKEYEMKLHTEAQIQEEGTVVELTGRQSSEITRTITKLSFVKVDSHFRQGIPFFGQVRLVDGKGVPIPNKVIFIRGNEANYYSNATTDEHGLVQFSINTTNVMGTSLTVRVNYKDRSPCYGYQWVSEEHEEAHHTAYLVFSPSKSFVHLEPMSHELPCGHTQTVQAHYILNGGTLLGLKKLSFYYLIMAKGGIVRTGTHGLLVKQEDMKGHFSISIPVKSDIAPVARLLIYAVLPTGDVIGDSAKYDVENCLANKVDLSFSPSQSLPASHAHLRVTAAPQSVCALRAVDQSVLLMKPDAELSASSVYNLLPEKDLTGFPGPLNDQDNEDCINRHNVYINGITYTPVSSTNEKDMYSFLEDMGLKAFTNSKIRKPKMCPQLQQYEMHGPEGLRVGFYESDVMGRGHARLVHVEEPHTETVRKYFPETWIWDLVVVNSAGVAEVGVTVPDTITEWKAGAFCLSEDAGLGISSTASLRAFQPFFVELTMPYSVIRGEAFTLKATVLNYLPKCIRVSVQLEASPAFLAVPVEKEQAPHCICANGRQTVSWAVTPKSLGNVNFTVSAEALESQELCGTEVPSVPEHGRKDTVIKPLLVEPEGLEKETTFNSLLCPSGGEVSEELSLKLPPNVVEESARASVSVLGDILGSAMQNTQNLLQMPYGCGEQNMVLFAPNIYVLDYLNETQQLTPEIKSKAIGYLNTGYQRQLNYKHYDGSYSTFGERYGRNQGNTWLTAFVLKTFAQARAYIFIDEAHITQALIWLSQRQKDNGCFRSSGSLLNNAIKGGVEDEVTLSAYITIALLEIPLTVTHPVVRNALFCLESAWKTAQEGDHGSHVYTKALLAYAFALAGNQDKRKEVLKSLNEEAVKKDNSVHWERPQKPKAPVGHFYEPQAPSAEVEMTSYVLLAYLTAQPAPTSEDLTSATNIVKWITKQQNAQGGFSSTQDTVVALHALSKYGAATFTRTGKAAQVTIQSSGTFSSKFQVDNNNRLLLQQVSLPELPGEYSMKVTGEGCVYLQTSLKYNILPEKEEFPFALGVQTLPQTCDEPKAHTSFQISLSVSYTGSRSASNMAIVDVKMVSGFIPLKPTVKMLERSNHVSRTEVSSNHVLIYLDKVSNQTLSLFFTVLQDVPVRDLKPAIVKVYDYYETDEFAIAEYNAPCSKDLGNPTG
notes: human α2-macroglobulin, UniProt P01023, residues S24-N1473; residues from the construct before the His6-tag; Found in the induced form; also called recombinant hα2M from S2 cells; pIE-hα2M-H6; source: Drosophila S2 cells, transiently transfected, secreted (AKH signal peptide), purified (Ni-NTA, IEC, SEC); not shown: His6, C-terminal, kept
Broadly, the stoichiometry N is the number of molecules, sites or subunits per partner or assembly. For the molecule B1, the “stoichiometry N” value in series [1] is 4.

B2: Strep-tagged G-related α2M-binding protein (GRAB), V34-N181 (domain or fragment)
chain: GAMVDSPIEQPRIIPNGGTLTNLLGNAPEKLALRNEERAIDELKKQAIEDKEATTAIEAASSDALEALADQTDALQSEEAAVVKADNAASDALEALADQTDALQSEEAEVVQSDNAASDAWEKAATPIALDVKKTKDTKPVVKKEERQNVN
notes: residues left at the N-terminus after TEV cleavage, from the cloning strategy; also called Strep-tagged GRAB; pCri-H6-TEV-GRAB-STREP; source: E. coli BL21 (DE3), purified (Streptactin XT, IEC, SEC); not shown: His6, N-terminal, cleaved; Strep-tag, C-terminal, kept
In general, Kd refers to a measure of binding affinity in units of concentration. Read a high Kd as lower affinity. By koff is commonly meant a measure of how fast the partners let go of each other. A low value points to slow dissociation. As a reminder, the kon is the rate constant with which the complex forms. High values mean fast association, low ones slow association. For the molecule B2, the dissociation constant (Kd) in series [2] stood at 34.5 nM. The same molecule registered a Kd in series [3] of 94.6 nM. In series [4], this molecule showed a Kd of 14.3 nM, a koff of 0.0019 s⁻¹ and a kon of 132000 M⁻¹ s⁻¹.

B3: G-related α2M-binding protein (GRAB), V34-N181, untagged (domain or fragment)
chain: B2 chain
notes: residues left at the N-terminus after TEV cleavage, from the cloning strategy; the theoretical mass of 15.8 kDa that it compares with fits the untagged form (surmise); also called pCri-H6-TEV-GRAB; source: E. coli BL21 (DE3), purified (Ni-NTA, TEV cleavage, reverse Ni-NTA, IEC, SEC); not shown: His6, N-terminal, cleaved
Consider B3, for which the “stoichiometry N” value amounted to 1.7 GRAB per hα2M tetramer in series [5] and 2 GRAB per hα2M tetramer in series [6].

B4: G-related α2M-binding protein (GRAB), V34-N181, labelled with Sulfo-NHS-AMCA (domain or fragment)
chain: B2 chain
modifications: sulfosuccinimidyl-7-amino-4-methylcoumarin-3-acetate (Sulfo-NHS-AMCA) label, sites not stated
notes: residues left at the N-terminus after TEV cleavage, from the cloning strategy; also called fluorophore-labelled GRAB; labelled GRAB; source: E. coli BL21 (DE3), purified, labelled with Sulfo-NHS-AMCA; not shown: His6, N-terminal, cleaved
As to B4, the binding result in series [7] and in series [8] was “binds” each time.

The record behind these values is PMC6591361, “Recombinant production of human α2-macroglobulin variants and interaction studies with recombinant G-related α2-macroglobulin binding protein and latent transforming growth factor-β2” (Scientific Reports, 2019).
